Series [1] concerns streptozotocin-induced type 1 diabetic mice. Briefly: Blood glucose in streptozotocin-induced type 1 diabetic mice. The class given is in vivo. The conditions noted are these: 1 mg/kg intravenous. As for the experimental part:
After establishing the chemical stability and structural integrity of ZIF-8 encapsulated insulin, the biological activity of ZIF-8 encapsulated insulin was assessed by measuring the effectiveness of ZIF-8 encapsulated insulin for treating hyperglycemia in streptozotocin-induced type 1 diabetic mice. […] The ZIF-8 encapsulated insulin was released by adding EDTA before injection. The blood glucose concentrations of mice in each group were then monitored for 12 h. […] Histological evaluation of the major organs of the mice at 5 days after intravenous injection of PBS or stabilized insulin. […] The ZIF-8 encapsulated insulin was released by adding EDTA before injection. Results are the mean±standard deviation (n=3). […] The partial loss of insulin bioactivity here could be attributed to the loss of structure integrity of insulin at elevated temperatures as confirmed by the aforementioned ELISA, CD and HPLC experiments.
Mice were anesthetized with 2% isoflurane.

Series [2] can be described thus: Release of insulin from ZIF-8 encapsulation by EDTA. It is filed as physicochemical. The settings on record: 30 mM zinc acetate with 120 mM 2-methylimidazole. An excerpt:
Elevated temperature is the primary detrimental condition during insulin transport and storage, an issue likely to be exacerbated by the increasing epidemic of diabetes in the developing countries, where refrigeration or “cold chain” facilities are not guaranteed. At high temperatures, insulin undergoes both physical (such as unfolding, non-native aggregation and fibrillation) and chemical degradations (such as deamidation, disulfide destruction and reshuffling). […] After 1 week, the ZIF-8 encapsulated insulin was released by adding ethylenediaminetetraacetic acid (EDTA) to dissociate the ZIF-8 crystals by breaking the coordination bonds between zinc and 2-methylimidazole (FIG. 25). The released insulin and unencapsulated insulin were then quantified by ELISA. The preservation efficacy (insulin recovery %) was calculated by comparing the recovered amount of insulin to the insulin amount prior to incubation. […] Compared to the optimal precursor concentrations, the low insulin recovery upon using 10 mM zinc acetate with 40 mM 2-methylimidazole is attributed to the incomplete encapsulation of insulin (FIG. 24). […] The insulin amount in the solution was measured by ELISA and compared with total insulin amount before encapsulation. […]

Series [3] is described as follows: Circular dichroism of insulin secondary structure. The class given is physicochemical. Here is the method:
To further confirm that ZIF-8 encapsulation preserves the insulin structure, circular dichroism (CD) spectroscopy was employed to characterize the secondary structure of insulin with and without ZIF-8 encapsulation after 1 week incubation at 40° C. (FIG. 26D). […] Inset: Secondary structure content of the three types of insulin obtained from the CD spectra. […] FIG. 30 discloses the following: Left: CD spectra of pristine insulin prior to agitation, released insulin from ZIF-8 encapsulation after 48 h agitation at 200 rpm and insulin without ZIF-8 encapsulation after 48 h agitation at 200 rpm; Right: secondary structure content of the three types of insulin obtained from the CD spectra. […] FIG. 31 discloses the following: Left: CD spectra of pristine insulin prior to exposure to ethyl acetate, released insulin from ZIF-8 encapsulation after exposure to ethyl acetate for 6 h and insulin without ZIF-8 encapsulation after exposure to ethyl acetate for 6 h; and, right: secondary structure content of the three types of insulin obtained from the CD spectra. […]
Circular dichroism (CD) spectroscopy. […] The insulin recovered from various treatments was quantified by BCA assay and diluted to 100 μg/mL in PBS. The secondary structures of insulin (α-helical content, β-sheet content) were analyzed using CDPro software from CD spectra.

The subject of series [4] is STZ-induced type 1 diabetic mice. The conditions noted are these: mouse, in vivo.
Method: STZ-induced male C57BL/6 (6-10 weeks) type 1 diabetic mice were purchased from Jackson Laboratory (USA). The blood glucose levels of mice were tested 1 day before administration by collecting blood (˜3 μL) from the tail vein and measuring using the Clarity GL2Plus glucose monitor (VWR, USA). The mice were randomly divided into four groups (3 mice each group) and intravenously injected via lateral tail vein with PBS solution, insulin stored at −20° C., ZIF-8 preserved insulin (dissociated by EDTA) and insulin alone stored at 40° C. for 1 week, respectively. The insulin dose for each mouse was 1 mg/kg (125 μg/mL, ˜200 μL). The blood glucose level was measured from tail vein blood samples (˜3 μL) of mice at different time points (at 10, 20, 40, and 60 min, and once per hour afterward for the first 12 h in the day of administration). Mice were anesthetized with 2% isoflurane. The mice treated with ZIF-8 preserved insulin and PBS were sacrificed after 5 days administration, and major organs were collected and sliced for haematoxylin and eosin (H&E) staining.
Series [5] in a line: Preservation of CA-125 spiked in fresh blood under temperature fluctuations and shipping. It is filed as physicochemical. The conditions noted are these: plasma from spiked fresh blood, 20-fold diluted; 8 days 25/40° C. temperature cycles or 10 days shipping. Here is the method:
The applicability of this technique was assessed to preserve blood samples drawn in resource-limited settings. Unlike serum and plasma, in some embodiments the presence of a large quantity of whole cells (red and white blood cells and platelets) in blood affects ZIF-8 encapsulation of target protein biomarkers. Considering that in some embodiments ZIF-8 also forms a thick layer on cell surfaces56 and lead to incomplete encapsulation or preservation of target protein biomarkers, it is important to remove blood cells through centrifugation before ZIF-8 encapsulation of protein biomarkers. Unfortunately, centrifuge is typically inaccessible in resource-limited settings considering that conventional systems are bulky, expensive and electrically-powered. A hand-powered centrifuge was implemented that was able to separate plasma from whole blood within 10 minutes for subsequent ZIF-8 encapsulation (FIG. 19A). In order to mimic fresh whole blood samples from ovarian cancer patients, four different concentrations of CA-125 within pathological-relevant range from 25 ng/ml-25 μg/ml were spiked into fresh blood from healthy volunteers.58-59 Then the plasma samples (heparin-anticoagulated) were separated from blood and diluted 20-fold for ZIF-8 encapsulation. To assess the preservation efficacy of this approach under unregulated conditions, two sets of experiments were devised. […]

A short description of series [6]: Preservation of CA-125 spiked in serum/plasma dried on paper (ELISA). The class given is physicochemical. From the text: Further attention was given to blood (and components serum and plasma), the most common biospecimens in biological and clinical studies. Compared to urine, serum or plasma represents a more complex biological matrix due to the presence of large amount of various proteins such as albumin, globulins and fibrinogen. Before proceeding to assess the preservation of specific protein biomarker, it was confirmed that different types of proteins are extracted from the paper substrates containing dried serum with or without ZIF-8 encapsulation using sodium dodecyl sulfate-polyacrylamide gel electrophoresis (SDS-PAGE), indicating the potential of this technique in preserving multiple protein biomarkers simultaneously in serum or plasma (FIG. 16). […] Lane a, c and e are corresponding to eluate of volunteer #1, #2 and #3 serum without ZIF-8 encapsulation, respectively. Lane b, d and f are corresponding to eluate of volunteer #1, #2 and #3 serum with ZIF-8 encapsulation, respectively. CA-125, a serum biomarker for ovarian cancer, was used as the model protein and spiked into serum from healthy people. Considering extremely high concentration of serum proteins, the serum was first diluted (5-, 10- or 20-fold) before spiking CA-125 and adding ZIF-8 precursors to ensure ZIF-8 formation and more complete encapsulation. The CA-125 spiked serum samples, both with and without ZIF-8 encapsulation, were dried on paper and stored at 40° C. for 1 week. […] The poor preservation of CA-125 from 5- and 10-fold diluted serum was due to the incomplete ZIF-8 formation and encapsulation (FIG. 18). The encapsulation efficiency was calculated by subtracting the remaining CA-125 amount in the supernatant after encapsulation and centrifugation (concentration measured by ELISA) from the total CA-125 amount. […] Subsequently, CA-125 was spiked into three different matrices that represent typical blood-derived biospecimens (serum, heparin-anticoagulated plasma and EDTA-anticoagulated plasma from healthy people with 20-fold dilution), dried on paper substrates with and without ZIF-8 encapsulation, and subsequently stored at 25, 40, or 60° C. for different durations of time. CA-125 concentration in the eluate was quantified using sandwich ELISA. […] (FIG. 17D-F). FIGS. 17D-F show preservation efficacy of CA-125 spiked in serum, heparin-plasma or EDTA-plasma on paper card at 25, 40 or 60° C. for different durations.
Sample preparation. NGAL-spiked artificial urine (50 μg/ml of NGAL, 25 μl) or patient urine (25 μl) was first mixed with 2-methylimidazole aqueous solution (12.5 μl) and then zinc acetate dihydrate aqueous solution (12.5 μl). The final concentrations of 2-methylimidazole after mixing were 320 mM, 160 mM, 80 mM and 40 mM. […]

The values that follow come from patent US11856945B2, “Methods and systems for preparing and preserving a biological sample” (Washington University, priority 2017, dated 2024).

For “Insulin at −20° C.: unencapsulated insulin solution stored frozen at −20° C., the gold standard control”, the “time blood glucose maintained in the normoglycemic range” value in series [1] is on record as 4 h. In addition, in series [1] (within 12 h), the “blood glucose after return to hyperglycemic range” value was roughly 550 mg/dL.
Take “unencapsulated insulin: human recombinant insulin in solution without ZIF-8 encapsulation”: the “release of insulin from ZIF-8 by EDTA” value in series [2] was roughly 90%. In addition, the “secondary structure (CD spectrum)” value in series [3] (1 week incubation at 40° C., versus pristine insulin) was “an increase in the β-sheet content along with the decrease in the α-helical content”; in series [3] (after mechanical agitation (48 h at 200 rpm)), “from an overall rich helical to dominant β-sheet structure”. Moreover, the “effect on blood glucose concentrations” value in series [1] was “only moderately decreased glucose concentrations”. In series [4], the “Mice weight Before” value was 22.0 ± 0.2 g.
In the case of cancer antigen 125 [CA-125], the CA-125 preservation is 50-60% in series [5]; roughly 90% in series [6] (20-fold diluted serum, with ZIF-8 encapsulation, 40° C., one week); roughly 50% in series [6] (serum, heparin-plasma and EDTA-plasma (20-fold dilution), 25° C., 4 weeks); roughly 40% in series [6] (serum, heparin-plasma and EDTA-plasma (20-fold dilution), 40° C., 4 weeks); roughly 30% in series [6] (serum, heparin-plasma and EDTA-plasma (20-fold dilution), 60° C., 4 weeks).
